Source: patent US20170081417A1 (Kyowa Kirin, published 2017)
No end group written: not given here.

T1: human OX40 (CD134), full length, expressed on cells (activated human T cells); EL4-OX40 and CHO-OX40 … (human, UniProt P43489 29-277)
T1 sequence: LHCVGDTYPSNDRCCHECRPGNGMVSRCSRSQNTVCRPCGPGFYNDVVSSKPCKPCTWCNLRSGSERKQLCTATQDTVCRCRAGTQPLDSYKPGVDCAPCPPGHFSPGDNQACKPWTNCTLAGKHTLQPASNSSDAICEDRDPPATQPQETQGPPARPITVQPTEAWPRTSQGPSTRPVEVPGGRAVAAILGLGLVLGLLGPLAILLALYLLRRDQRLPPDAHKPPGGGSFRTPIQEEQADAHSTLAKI

T2: human OX40 peptide 112A (human, also: conjugated to KLH via maleimide linker)
T2 peptide: RPAGPGFYNDVVSSKPC

T3: human OX40 peptide 112B (human, also: conjugated to KLH via maleimide linker)
T3 peptide: RAGTQPLDSYKPGVDC

T4: human OX40 peptide 112C (human, also: conjugated to KLH via maleimide linker)
T4 peptide: LAGKHTLQPASNSSDAIC


Columns and labels:
[1] = target: T1, human OX40 (CD134), full length, …; assay: cell-based or functional assay
[2] = target: T5, human OX40 extracellular domain fused to the Fc portion of human IgG1 (hOX40:hFc) (human); assay: ELISA, OX40L-FLAG binding to coated hOX40:hFc, anti-FLAG-HRP
T5 construct: Made in Tn5 insect cells; also called OX40-hIgG1; human OX40:hIgG1 fusion protein
Protocol: (§1) The ability of 112F32, 112V8, 112Y131, 112Y55, and 112Z5 to block soluble hOX40L binding to coated hOX40:hFc fusion protein was tested using an ELISA protocol (FIG. 5A, Table 3). The plates were coated with hOX40:hFc and after blocking non-specific sites the anti-OX40 antibodies were allowed to bind. Without washing OX40L-FLAG was added to the wells. Bound ligand was detected with anti-FLAG-HRP secondary antibody. Percent inhibition was determined using the following formula (100−(OD sample/OD maximum OX40L binding))*100. 112V8, 112Y55, and 112Y131 prevented 85% of the binding of soluble OX40L to hOX40:hFc. 112F32 prevented approximately 70% of the binding of soluble hOX40L to hOX40:hFc and 112Z5 blocked 67% of the maximal binding.

[3] = target: T5, human OX40 extracellular domain fused …; assay: ELISA, blocking of OX40L-FLAG binding to coated hOX40:hFc
Protocol: as §1

[4] = target: T1, human OX40 (CD134), full length, …; assay: flow cytometry titration on activated human T cells, anti-human IgG-PE
Protocol: (§2) Following twenty minute incubation on ice, the cells were washed once and fixed ten minutes with 1% paraformaldehyde. After a final wash the cells were resuspended in staining buffer and the samples were acquired using FACScan or FACS Calibur flow cytometers (Becton Dickinson Biosciences, Palo Alto, Calif.), and the data were analyzed using Cellquest (Becton Dickinson Biosciences) or Flow Jo (TreeStar, Inc., San Carlos, Calif.) software. The activated T cells were also stained with mouse anti-human OX40 antibody L106 (Becton Dickinson), which was directly conjugated to phycoerythrin or whose binding was detected with anti-mouse IgG-PE (Southern Biotechnology Associates.) OX40L Blocking Assays: To determine if the anti-human OX40 antibodies could block OX40L binding to soluble OX40 both ELISA and flow cytometric protocols were used. In the ELISA 96 well Nunc flat bottom plates were coated with recombinant soluble hOX40:hFc at 2 μg/ml in carbonate buffer (pH9.4) for one hour at 37° C. The plates were washed with PBS/0.1% Tween 20 and Superblock (Pierce) was added to the wells to block non-specific binding. The test antibodies were diluted to 1 μg/ml in PBS/Tween and added to the plates. After one hour incubation at 37° C., FLAG tagged recombinant soluble human OX40L (Alexis Biochemicals, San Diego, Calif.) was added to the appropriate wells without washing out the anti-OX40 antibodies. Following one hour incubation, the plates were washed and an anti-FLAG-peroxidase conjugated antibody (Sigma) was added to the wells for one hour at 37° C. The TMB substrate was added, after ten minutes the reaction was stopped with H₂SO₄, and the results were read at 450 nm using a microplate reader. In the flow cytometric assay, human CD4+ T cells were purified and activated with PHA+IL2 for two days. The cells were washed and resuspended in staining buffer and then incubated with increasing amounts of human anti-human OX40 antibodies for twenty minutes on ice, from 0.005-50 μg/ml. Soluble recombinant OX40L-FLAG was then added to the cells. The cells were washed and incubated with anti-FLAG conjugated to PE (Sigma). After another wash, the cells were fixed with 1% paraformaldehyde and analyzed on a FACScan or FACScalibur.

[5] = target: T1, human OX40 (CD134), full length, …; assay: flow cytometry, blocking of OX40L-FLAG binding to activated human T cells
Excerpt: as §2, with “The” for “Following twenty minute incubation on ice, the cells were washed once and fixed ten minutes with 1% paraformaldehyde. After a final wash the cells were resuspended in staining buffer and the samples were acquired using FACScan or FACS Calibur flow cytometers (Becton Dickinson Biosciences, Palo Alto, Calif.), and the data were analyzed using Cellquest (Becton Dickinson Biosciences) or Flow Jo (TreeStar, Inc., San Carlos, Calif.) software. The”
(§3) Slightly different results were obtained when a flow cytometric based assay was used to monitor blockade of soluble OX40L binding to activated human T cells that express OX40 (FIG. 5B). Activated human T cells were labeled with anti-OX40 antibodies followed by soluble flag tagged-human OX40L. Binding of OX40L was detected with anti-FLAG-PE antibody. Percent inhibition was determined using the same formula, i.e., (100−(sample/maximum binding))*100.

human OX40 peptide 112A = target: T2, human OX40 peptide 112A; assay: ELISA on coated KLH-conjugated peptide
Protocol: (§4) Antibody titers, specificity, and production by hybridomas were determined by ELISA. In brief, 96 well flat bottom plates were coated with 50 μl of hOX40:hFc at 5 μg/ml in carbonate buffer (pH 9.4) overnight at 4° C. or at 37° C. for one hour. After washing twice with PBS/0.1% Tween 20, plates were blocked with PBS/1% BSA/0.1% Tween20 at 37° C. for one hour. The serum, supernatant, or purified antibody was diluted in blocking buffer, added to the wells, and the plates were incubated for one hour at 37° C. The plates were washed four times with PBS/0.1% Tween 20 and the peroxidase conjugated sheep anti-human kappa detection antibody (The Binding Site, Birmigham, UK) was added at a dilution of 1:2000. Following one hour incubation at 37° C., the plates were washed and the TMB (Sigma) substrate was added and incubated at room temperature for ten to thirty minutes. The reaction was stopped with H₂SO₄ (LabChem) and the optical density was measured at 450 nm by a microplate reader.
(§5) The peptides were generated by A & A Lab, LLC and conjugated to keyhole limpet hemocyanin (“KLH”) with a maleimide linker following the manufacturer's instructions (Pierce). The peptides were coated at 10 μg/ml in carbonate buffer to 96 well Maxisorp ELISA plates (Nunc) at 4° C. overnight. The plate was washed with PBS/0.1% Tween 20 and then blocked with Casein buffer (Pierce) for three hours at room temperature. Candidate antibodies were added at 10 μg/ml diluted in 10% Casein in PBS/0.1% Tween 20. The remainder of the ELISA was performed as described for the OX40 specific antibody detection ELISA.

human OX40 peptide 112B = target: T3, human OX40 peptide 112B; assay: ELISA on coated KLH-conjugated peptide
Protocol: as §4, §5

human OX40 peptide 112C = target: T4, human OX40 peptide 112C; assay: ELISA on coated KLH-conjugated peptide
Protocol: as §4, §5

[6] = target: T1, human OX40 (CD134), full length, …; assay: flow cytometry, blocking of OX40L-FLAG binding to activated human T cells; footnote: not inhibitory at 50 µg/ml
Excerpt: The activated T cells were also stained with mouse anti-human OX40 antibody L106 (Becton Dickinson), which was directly conjugated to phycoerythrin or whose binding was detected with anti-mouse IgG-PE (Southern Biotechnology Associates.) OX40L Blocking Assays: To determine if the anti-human OX40 antibodies could block OX40L binding to soluble OX40 both ELISA and flow cytometric protocols were used. In the ELISA 96 well Nunc flat bottom plates were coated with recombinant soluble hOX40:hFc at 2 μg/ml in carbonate buffer (pH9.4) for one hour at 37° C. The plates were washed with PBS/0.1% Tween 20 and Superblock (Pierce) was added to the wells to block non-specific binding. The test antibodies were diluted to 1 μg/ml in PBS/Tween and added to the plates. […] The TMB substrate was added, after ten minutes the reaction was stopped with H₂SO₄, and the results were read at 450 nm using a microplate reader. […] After another wash, the cells were fixed with 1% paraformaldehyde and analyzed on a FACScan or FACScalibur.
as §3, with “Activated human T cells were labeled with anti-OX40 antibodies followed by soluble flag tagged-human OX40L.” left out

| ADCC % Lysis at 10 µg/ml [1] | percent inhibition of OX40L binding [2] | IC50 [3] | BMAX Geo Mean [4] | Kd [4] | IC50 [5] | binding result (human OX40 peptide 112A) | binding result (human OX40 peptide 112B) | binding result (human OX40 peptide 112C) | IC50 [6] | Binder |
| --- | --- | --- | --- | --- | --- | --- | --- | --- | --- | --- |
| 35% | 67% | 0.081 µg/mL | 118 geometric mean fluorescence | 11 nM | 14.7 µg/mL | – | – | – | – | 112Z5 human anti-human OX40 monoclonal antibody (hybridoma ATCC No. PTA-7216) (antibody, V domains shown) VH: VVSTQSTGGGLVQPGRSLRLSCAASGFTLDDYGMHWVRQAPGKGLEWVSGISWNSDSIGYVDSVKGRFTISRDNAKNSLYLQMNSLRVEDTALYYCVKDISGWYSFDYWGQGTLVTVSS VL: EIVLTQSPATLSLSPGERATLSCRASQSVSSYLAWYQQKPGQAPRLLIYDASNRATGIPARFSGSGSGTDFTLTISSLEPEDFAVYYCQQRSNWPITFGQGTRLEIK |
| 55.6% | – | – | – | – | – | – | – | – | – | recombinant 112V8G1 antibody (112V8 variable regions in human IgG1) (antibody, V domains shown) VH: QITLKESGPTLVKPKQTLTLTCTFSGFSLSTSGMGVGWIRQPPGKALEWLAVIYWDDHQLYSPSLKSRLTITKDTSKNQVVLTMTNMDPVDTATYYCAHRRGAFQHWGQGTLVTVSS VL: not shown |
| – | 85% | 0.051 µg/mL | 181 geometric mean fluorescence | 36 nM | 0.62 µg/mL | no binding (tested: 10 µg/ml) | no binding (tested: 10 µg/ml) | no binding (tested: 10 µg/ml) | – | 112V8 human anti-human OX40 monoclonal antibody (hybridoma ATCC No. PTA-7219) (antibody, IgG4, V domains shown) VH: QITLKESGPTLVKPKQTLTLTCTFSGFSLSTSGMGVGWIRQPPGKALEWLAVIYWDDHQLYSPSLKSRLTITKDTSKNQVVLTMTNMDPVDTATYYCAHRRGAFQHWGQGTLVTVSS VL: not shown |
| 18% | – | – | – | – | – | – | – | – | – | recombinant 112V8 IgG4PE antibody (112V8G4PE) (antibody, V domains shown) VH: QITLKESGPTLVKPKQTLTLTCTFSGFSLSTSGMGVGWIRQPPGKALEWLAVIYWDDHQLYSPSLKSRLTITKDTSKNQVVLTMTNMDPVDTATYYCAHRRGAFQHWGQGTLVTVSS VL: not shown |
| 37% | – | – | – | – | – | – | – | – | – | recombinant 112F32G1 antibody (112F32 variable regions in human IgG1) (antibody, V domains shown) VH: GVQLVESGGGLVQPGGSLRLSCAASGFTFSSYSMNWVRQAPGKGLEWVSYISSSSSTIYYADSVKGRFTISRDNAKNSLYLQMNSLRDEDTAVYYCARGVYHNGWSFFDYWGQGTLLTVSS VL: DIQMTQSPSSLSASVGNRVTITCRASQDISSWLAWYQQKPEKAPKSLIYAASSLQSGVPSRFSGSGSGTDFTLTISSLQPEDFATYYCQQYNSYPLTFGQGTRLEIKR |
| – | ~70% | 0.65 µg/mL | 104 geometric mean fluorescence | 13 nM | – | no binding (tested: 10 µg/ml) | no binding (tested: 10 µg/ml) | no binding (tested: 10 µg/ml) | > 50 µg/mL | 112F32 human anti-human OX40 monoclonal antibody (hybridoma ATCC No. PTA-7217) (antibody, V domains shown) VH: GVQLVESGGGLVQPGGSLRLSCAASGFTFSSYSMNWVRQAPGKGLEWVSYISSSSSTIYYADSVKGRFTISRDNAKNSLYLQMNSLRDEDTAVYYCARGVYHNGWSFFDYWGQGTLLTVSS VL: DIQMTQSPSSLSASVGNRVTITCRASQDISSWLAWYQQKPEKAPKSLIYAASSLQSGVPSRFSGSGSGTDFTLTISSLQPEDFATYYCQQYNSYPLTFGQGTRLEIKR |
